Measured values published in US20200172620A1.

Legend:
[1] = molecular target: human CD8 (as used in SPR) (human) (UniProt P01732); assay: SPR
[2] = molecular target: human CD8 on cells (FACS) (human) (UniProt P01732); assay: FACS
Sequence of human CD8 on cells (FACS) (human) (P01732 22-235): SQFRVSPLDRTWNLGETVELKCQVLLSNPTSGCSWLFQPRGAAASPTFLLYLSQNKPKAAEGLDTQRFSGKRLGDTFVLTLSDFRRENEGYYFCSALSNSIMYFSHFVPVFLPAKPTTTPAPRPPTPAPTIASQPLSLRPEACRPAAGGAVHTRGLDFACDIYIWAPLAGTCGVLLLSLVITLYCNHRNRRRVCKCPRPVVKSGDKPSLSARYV

Sequence of human CD8 (as used in SPR) (human) (P01732 22-182): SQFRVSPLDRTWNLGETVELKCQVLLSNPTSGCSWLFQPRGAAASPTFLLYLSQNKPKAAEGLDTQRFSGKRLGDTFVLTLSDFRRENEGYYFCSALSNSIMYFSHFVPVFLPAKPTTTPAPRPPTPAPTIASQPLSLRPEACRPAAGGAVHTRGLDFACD

B1: OKT8 (antibody, from another filing, V domains shown)
VH: EVQLQQSGAELVKPGASVKLSCTASGFNIKDTYIHFVRQRPEQGLEWIGRIDPANDNTLYASKFQGKATITADTSSNTAYMHLCSLTSGDTAVYYCGRGYGYYVFDHWGQGTTLTVSS
VL: DVQINQSPSFLAASPGETITINCRTSRSISQYLAWYQEKPGKTNKLLIYSGSTLQSGIPSRFSGSGSGTDFTLTISGLEPEDFAMYYCQQHNENPLTFGAGTKLELK
- Kd [1]: 13 nM
- Ratio of KD huOKT8.v1/KD variant for binding to huCD8 [1]: 1 X
- Kd [2]: 20 nM
